Laboratory results as given in patent publication US20090203610A1, “METHODS OF TREATING OBESITY OR DIABETES USING NT-4/5” (RINAT NEUROSCIENCE CORPORATION, priority 2004, published 2009).

How the values were obtained:
db/db mice = assay: Dose response of NT-4/5 on serum biomarkers of db/db mice (Example 2); assay type: in vivo
Procedure: Db/db mice maintained as described in Example 1 were divided into five groups (groups 1-5). Group 1 (7 mice) were administered with vehicle (PBS). Group 2 (7 mice), group 3 (8 mice), group 4 (8 mice), group 5 (8 mice) were each administered with NT-4/5 at the doses of 2 mg/kg, 5 mg/kg, 10 mg/kg, and 20 mg/kg, respectively. Both the vehicle and NT-4/5 were administered to each group of the mice subcutaneously once daily for five days. One day before beginning the treatment (T0), blood samples were collected from the mice as described previously for the determination of baseline levels of serum biomarkers (glucose, triglyceride, and cholesterol). Similarly, at day 6 (T6), blood samples were collected for the determination of serum biomarker levels. The blood samples were treated in the same manner as described in Example 1.
Blood glucose, triglyceride, and cholesterol levels were determined as described in Example 1.

human TrkC = molecular target: T1, human TrkC (Homo sapiens, UniProt Q16288); assay: Receptor tyrosine phosphorylation in trkC expressing cell line; assay type: cell-based
T1 construct: expressed in transfected cells
T1 sequence (Q16288 32-839): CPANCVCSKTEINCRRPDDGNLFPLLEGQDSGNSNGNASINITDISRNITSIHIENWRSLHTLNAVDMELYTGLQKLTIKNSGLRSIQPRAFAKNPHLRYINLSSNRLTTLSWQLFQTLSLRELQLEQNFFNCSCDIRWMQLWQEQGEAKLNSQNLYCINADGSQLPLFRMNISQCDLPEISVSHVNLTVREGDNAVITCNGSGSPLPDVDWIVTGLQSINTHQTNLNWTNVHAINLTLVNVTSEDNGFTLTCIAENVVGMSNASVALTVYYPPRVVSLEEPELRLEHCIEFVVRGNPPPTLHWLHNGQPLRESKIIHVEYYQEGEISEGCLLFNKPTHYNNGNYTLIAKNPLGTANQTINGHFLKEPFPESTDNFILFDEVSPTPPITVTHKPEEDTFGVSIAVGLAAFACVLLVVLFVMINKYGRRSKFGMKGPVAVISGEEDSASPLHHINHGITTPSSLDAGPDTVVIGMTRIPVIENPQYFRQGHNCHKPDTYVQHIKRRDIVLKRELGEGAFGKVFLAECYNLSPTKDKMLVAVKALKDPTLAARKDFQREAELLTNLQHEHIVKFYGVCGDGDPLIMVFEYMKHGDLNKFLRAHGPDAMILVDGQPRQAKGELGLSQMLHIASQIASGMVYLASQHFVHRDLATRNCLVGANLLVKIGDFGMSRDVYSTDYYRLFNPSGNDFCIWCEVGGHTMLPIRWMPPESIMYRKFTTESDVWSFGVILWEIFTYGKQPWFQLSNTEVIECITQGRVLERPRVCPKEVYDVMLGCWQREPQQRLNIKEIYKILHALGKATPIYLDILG
Source text: (§1) Assays of TrkB specific activation by pegylated NT-4/5: Stable cell lines expressing human TrkA, TrkB or TrkC were used to determine the functional activity, i.e. receptor phosphorylation, of NT-4/5 and pegylated NT-4/5 as previously described (Sadick et al. Experimental Cell Research 234: 354-361, 1997).
as §1, with “and different forms of” for “and”

DIO mice = assay: Weekly intravenous pegylated G1S NT-4/5 versus WT NT-4/5 on body weight and food intake in DIO mice (Example 8); assay type: in vivo
Source text: Test animals: Mice with diet induced obesity (DIO) were used in this study. 29 male C57BL/6J mice were weaned at 4 weeks of age. Immediately after weaning, they were put on 58% high fat diet (D12331i, Research Diet) through out the study. The DIO mice at 13 weeks of age weighing in the range of 28-40 g were used in this study.
Administration of NT-4/5 and pegylated NT-4/5: NT-4/5 was obtained from Genentech Inc. or produced as described in U.S. Pat. No. 6,184,360. Pegylated NT-4/5 was produced as follows: A mutation was introduced by changing the glycine 1 position of mature human NT-4/5 sequence to serine, resulting in a mutant form of NT-4/5 (NT4-G1S). NT4-G1S protein was expressed in E. coli, solubilized, extracted, purified and refolded as described above. Refolded NT4-G1S was dialyzed into 50 mM sodium phosphate buffer at pH 6.8 and treated with 1.5 molar excess sodium meta-periodate for 10 minutes to oxidize the N-terminal serine (or threonine) residue to an aldehyde. Remaining periodate was removed by dialysis against 30 mM sodium acetate at pH 4.5. The exact concentration of NT4-G1S was determined and a 2 to 4 fold molar excess of 20K-m-PEG-HZ (methoxy polyethylene glycol hydrazide) was added. The reaction was incubated at 37° C. for several days with gentle agitation. Unconjugated PEG, pegylated NT4-G1S and non-pegylated NT4-G1S were separated via ion exchange or size exclusion chromatography.
The mice were divided into 3 groups of equivalent body weight and baseline blood glucose distribution (7-8 mice per group). Each group received four weekly intravenous doses (on day 1, 8, 15 and 22) of either vehicle, 2 mg/kg of NT-4/5 or 2 mg/kg of pegylated G1S NT-4/5 respectively. Body weight and food intake were monitored 5 days per week through out the entire study.

[1] = Day 0 (Baseline), 2 mg/kg group
[2] = Day 0 (Baseline), 5 mg/kg group
[3] = Day 0 (Baseline), 10 mg/kg group
[4] = Day 0 (Baseline), 20 mg/kg group

B1: NT-4/5: mature human neurotrophin-4/5 (SEQ ID NO:1), obtained from Genentech or produced in E. coli (protein, listed as Homo sapiens)
chain: GVSETAPASRRGELAVCDAVSGWVTDRRTAVDLRGREVEVLGEVPAAGGSPLRQYFFETRCKADNAEEGGPGAGGGGCRGVDRRHWVSECKAKQSYVRALTADAQGRVGWRWIRIDTACVCTLLSRTGRA
Cholesterol (db/db mice; [1]): 86.25 mg/dL
Glucose (db/db mice; [1]): 544.50 mg/dL
Triglyceride (db/db mice; [1]): 206.13 mg/dL
Cholesterol (db/db mice; [2]): 95.88 mg/dL
Glucose (db/db mice; [2]): 563.00 mg/dL
Triglyceride (db/db mice; [2]): 217.13 mg/dL
Cholesterol (db/db mice; [3]): 90.00 mg/dL
Glucose (db/db mice; [3]): 538.00 mg/dL
Triglyceride (db/db mice; [3]): 197.50 mg/dL
Cholesterol (db/db mice; [4]): 98.38 mg/dL
Glucose (db/db mice; [4]): 544.88 mg/dL
Triglyceride (db/db mice; [4]): 253.50 mg/dL
Cholesterol (db/db mice; Day 6, 2 mg/kg s.c. once daily for five days): 111.43 mg/dL
Cholesterol (db/db mice; Day 6, 5 mg/kg s.c. once daily for five days): 113.25 mg/dL
Cholesterol (db/db mice; Day 6, 10 mg/kg s.c. once daily for five days): 108.75 mg/dL
Cholesterol (db/db mice; Day 6, 20 mg/kg s.c. once daily for five days): 112.88 mg/dL
blood cholesterol levels (db/db mice; day 6, 2-20 mg/kg): remained at the baseline level
receptor tyrosine phosphorylation of trkC-expressing cell line (human TrkC): did not increase receptor tyrosine phosphorylation
body weight, pairwise difference with the vehicle control group (DIO mice; 2 mg/kg i.v. on day 1, 8, 15, 22, Bonferroni posttests): significant pairwise differences
body weight with long term weekly dosing (DIO mice; 2 mg/kg i.v. weekly): more effective in maintaining lower body weight
